Data on one molecule can be found in US20220332804A1 (CSL INNOVATION, published 2022).

Test in all cases: SPR, KD relative to WT C2;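 note: biacore SPR at 37 °C, anti-C2 mAbs captured on anti-human IgG chips with alanine or serine point mutants of C2 as analyte, KD from 1:1 fit compared with wild-type C2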
For one test, the target named is T1, human C2 V455A (human, UniProt P06681 21-752).
T1 sequence: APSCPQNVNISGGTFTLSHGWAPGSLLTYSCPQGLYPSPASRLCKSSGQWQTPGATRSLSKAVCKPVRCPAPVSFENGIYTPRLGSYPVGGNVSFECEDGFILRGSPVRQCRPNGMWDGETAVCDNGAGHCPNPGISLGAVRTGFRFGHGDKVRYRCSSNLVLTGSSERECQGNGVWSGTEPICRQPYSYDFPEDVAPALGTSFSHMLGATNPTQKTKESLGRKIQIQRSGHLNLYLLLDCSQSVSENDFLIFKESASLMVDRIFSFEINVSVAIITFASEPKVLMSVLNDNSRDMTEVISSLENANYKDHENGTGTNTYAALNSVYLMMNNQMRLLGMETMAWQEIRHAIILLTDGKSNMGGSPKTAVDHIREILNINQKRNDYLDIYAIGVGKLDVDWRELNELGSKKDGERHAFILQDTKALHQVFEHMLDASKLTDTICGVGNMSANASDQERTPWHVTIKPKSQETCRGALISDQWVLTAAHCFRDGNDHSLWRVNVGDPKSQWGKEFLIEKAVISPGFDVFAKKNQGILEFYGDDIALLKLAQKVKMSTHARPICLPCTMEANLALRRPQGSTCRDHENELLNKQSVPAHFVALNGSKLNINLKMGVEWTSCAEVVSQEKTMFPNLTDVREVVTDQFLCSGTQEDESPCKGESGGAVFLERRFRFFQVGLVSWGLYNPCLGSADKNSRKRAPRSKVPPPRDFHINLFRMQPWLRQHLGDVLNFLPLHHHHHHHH

For a further test, the target named is T2, human C2 Y328A (human, UniProt P06681 21-752).
T2 sequence: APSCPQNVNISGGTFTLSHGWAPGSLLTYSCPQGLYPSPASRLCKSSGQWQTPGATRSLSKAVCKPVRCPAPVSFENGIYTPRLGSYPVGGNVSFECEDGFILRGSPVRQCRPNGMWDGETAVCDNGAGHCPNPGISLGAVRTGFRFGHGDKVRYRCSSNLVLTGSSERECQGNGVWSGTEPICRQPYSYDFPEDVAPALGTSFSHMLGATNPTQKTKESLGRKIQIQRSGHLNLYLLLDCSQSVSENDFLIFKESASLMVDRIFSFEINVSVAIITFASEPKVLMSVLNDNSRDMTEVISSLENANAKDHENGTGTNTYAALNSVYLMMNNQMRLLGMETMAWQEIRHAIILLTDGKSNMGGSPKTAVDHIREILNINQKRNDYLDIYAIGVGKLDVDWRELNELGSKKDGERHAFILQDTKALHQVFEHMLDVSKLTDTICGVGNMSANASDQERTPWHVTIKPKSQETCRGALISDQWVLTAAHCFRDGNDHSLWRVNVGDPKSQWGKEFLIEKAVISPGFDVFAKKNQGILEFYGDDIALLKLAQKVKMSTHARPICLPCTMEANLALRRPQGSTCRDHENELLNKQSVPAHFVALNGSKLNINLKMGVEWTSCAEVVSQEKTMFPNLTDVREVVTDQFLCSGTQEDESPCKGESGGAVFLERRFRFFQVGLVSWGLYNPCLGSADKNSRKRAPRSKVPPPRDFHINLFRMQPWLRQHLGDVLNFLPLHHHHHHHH

A further test concerns the target T3, human C2 L271A (human, UniProt P06681 21-752).
T3 sequence: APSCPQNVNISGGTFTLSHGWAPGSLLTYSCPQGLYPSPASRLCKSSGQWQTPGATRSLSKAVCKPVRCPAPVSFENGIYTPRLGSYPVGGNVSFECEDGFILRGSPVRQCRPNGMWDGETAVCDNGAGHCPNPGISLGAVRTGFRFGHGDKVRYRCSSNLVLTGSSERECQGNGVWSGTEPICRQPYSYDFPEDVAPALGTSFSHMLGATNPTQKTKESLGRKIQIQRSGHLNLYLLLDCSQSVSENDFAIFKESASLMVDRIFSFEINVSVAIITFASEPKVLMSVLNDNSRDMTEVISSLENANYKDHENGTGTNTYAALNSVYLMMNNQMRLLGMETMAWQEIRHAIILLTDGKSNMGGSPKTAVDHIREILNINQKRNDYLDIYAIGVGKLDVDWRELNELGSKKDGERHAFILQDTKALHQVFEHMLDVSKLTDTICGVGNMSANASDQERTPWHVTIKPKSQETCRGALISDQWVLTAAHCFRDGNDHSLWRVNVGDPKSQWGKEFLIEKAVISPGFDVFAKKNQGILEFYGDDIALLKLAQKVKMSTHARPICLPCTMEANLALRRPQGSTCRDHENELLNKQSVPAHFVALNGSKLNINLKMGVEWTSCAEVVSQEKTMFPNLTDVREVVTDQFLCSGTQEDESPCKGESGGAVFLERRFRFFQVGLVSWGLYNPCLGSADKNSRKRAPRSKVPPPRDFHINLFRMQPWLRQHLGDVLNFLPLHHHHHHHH

The next test deals with T4, human C2 L439A (human, UniProt P06681 21-752).
T4 sequence: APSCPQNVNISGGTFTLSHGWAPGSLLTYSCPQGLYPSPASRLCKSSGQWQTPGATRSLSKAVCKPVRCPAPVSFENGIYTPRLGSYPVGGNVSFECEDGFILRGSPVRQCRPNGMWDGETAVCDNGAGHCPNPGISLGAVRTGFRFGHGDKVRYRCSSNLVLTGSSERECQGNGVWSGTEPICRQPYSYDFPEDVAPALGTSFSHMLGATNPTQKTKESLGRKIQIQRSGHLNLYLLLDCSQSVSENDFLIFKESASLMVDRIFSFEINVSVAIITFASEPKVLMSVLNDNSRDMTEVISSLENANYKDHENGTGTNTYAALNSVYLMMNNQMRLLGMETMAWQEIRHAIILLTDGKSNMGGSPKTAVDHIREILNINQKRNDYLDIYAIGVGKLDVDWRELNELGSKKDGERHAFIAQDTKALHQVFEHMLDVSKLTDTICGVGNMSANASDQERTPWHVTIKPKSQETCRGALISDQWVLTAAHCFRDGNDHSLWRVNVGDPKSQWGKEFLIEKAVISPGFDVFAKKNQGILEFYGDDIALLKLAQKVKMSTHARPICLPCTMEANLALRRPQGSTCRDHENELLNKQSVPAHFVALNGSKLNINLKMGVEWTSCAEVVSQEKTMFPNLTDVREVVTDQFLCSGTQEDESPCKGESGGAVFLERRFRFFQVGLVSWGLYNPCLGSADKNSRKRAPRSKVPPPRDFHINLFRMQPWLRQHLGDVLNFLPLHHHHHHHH

B1: RF16-242 (antibody, human IgG4 S228P, lambda, V domains shown)
VH: EVQLLQSGAEVKKPGESLKISCKGSGYSFTSYWIGWVRQMPGKGLEWMGIIYPGDSDTRYSPSFQGQVTISADKSISTAYLQWSSLKASDTAMYYCARRGHYGDYFDYWGQGTLVTVSS
VL: SYELTQPPSVSVSPGQTARITCSGDALPKKYAYWYHQKSGQAPVLVIYEDRRRPSEIPERFSGSSSGTMATLTITGAQVEDEGVYFCYSRDRAGNQRVFGGGTQLTVLG
notes: pH-dependent anti-C2 antibody from a phage display library
Take B1: the Fold diff with human C2 V455A is 1 fold; in the test with human C2 Y328A it was 6 fold; in the test with human C2 L271A, 1 fold; with human C2 L439A, 24 fold.
